In US20250339504A1, “CANCER VACCINE WITH USE OF COMMON CANCER ANTIGEN COCKTAIL, TCR/CAR-T CELL THERAPEUTIC, COMPANION DIAGNOSTIC METHOD, AND METHOD FOR DIAGNOSING RISK OF CANCER ONSET BY DETECTING CIRCULATING TUMOR CELLS” (National Cancer Center, priority 2022, published 2025):

B1: 7B9: HLA-A2-restricted T cell clone/TCR recognizing HSP105-derived peptide; SEQ ID NO: 195, 196 (protein, listed as Homo sapiens)
chain 1: METLLGVSLVILWLQLARVNSQQGEEDPQALSIQEGENATMNCSYKTSINNLQWYRQNSGRGLVHLILIRSNEREKHSGRLRVTLDTSKKSSSLLITASRAADTASYFCATDTGGAQKLVFGQGTRLTINP
chain 2: MDSWTLCCVSLCILVAKHTDAGVIQSPRHEVTEMGQEVTLRCKPISGHDYLFWYRQTMMRGLELLIYFNNNVPIDDSGMPEDRFSAKMPNASFSTLKIQPSEPRDSAVYFCASSPDRGETQYFGPGTRLLVL
B2: 10G7: HLA-A2-restricted T cell clone/TCR recognizing HSP105-derived peptide; SEQ ID NO: 197, 198 (protein, listed as Homo sapiens)
chain 1: MWGVFLLYVSMKMGGTTGQNIDQPTEMTATEGAIVQINCTYQTSGFNGLFWYQQHAGEAPTFLSYNVLDGLEEKGRFSSFLSRSKGYSYLLLKELQMKDSASYLCAVRALREAGTALIFGKGTTLSVSS
chain 2: MDTWLVCWAIFSLLKAGLTEPEVTQTPSHQVTQMGQEVILRCVPISNHLYFYWYRQILGQKVEFLVSFYNNEISEKSEIFDDQFSVERPDGSNFTLKIRSTKLEDSAMYFCASSQNREAFFGQGTRLTVV
B3: 10C9: HLA-A2-restricted T cell clone/TCR recognizing HSP105-derived peptide; SEQ ID NO: 202, 203 (protein, listed as Homo sapiens)
chain 1: MSLSSLLKVVTASLWLGPGIAQKITQTQPGMFVQEKEAVTLDCTYDTSDPSYGLFWYKQPSSGEMIFLIYQGSYDQQNATEGRYSLNFQKARKSANLVISASQLGDSAMYFCAMRDRNTGNQFYFGTGTSLTVIP
chain 2: MGFRLLCCVAFCLLGAGPVDSGVTQTPKHLITATGQRVTLRCSPRSGDLSVYWYQQSLDQGLQFLIQYYNGEERAKGNILERFSAQQFPDLHSELNLSSLELGDSALYFCASSVEVYNEQFFGPGTRLTVL
B4: 11B9: HLA-A2-restricted T cell clone/TCR recognizing HSP105-derived peptide; SEQ ID NO: 193, 194 (protein, listed as Homo sapiens)
chain 1: MACPGFLWALVISTCLEFSMAQTVTQSQPEMSVQEAETVTLSCTYDTSESDYYLFWYKQPPSRQMILVIRQEAYKQQNATENRFSVNFQKAAKSFSLKISDSQLGDAAMYFCAYRIPGAGSYQLTFGKGTKLSVIP
chain 2: MGTRLLCWVVLGFLGTDHTGAGVSQSPRYKVAKRGQDVALRCDPISGHVSLFWYQQALGQGPEFLTYFQNEAQLDKSGLPSDRFFAERPEGSVSTLKIQRTQQEDSAVYLCASSPGLAGGAQETQYFGPGTRLLVL

test system: T2 cells to which an HSP105-derived peptide had been exogenously bound; test: IFN-γ ELISPOT of HLA-A2-restricted HSP105-specific T cell clones; format: cell-based; conditions: coculture with HLA-A2 T2 cells in the presence of the peptide, 20 hours
Method: HSP105-HLA-A2 Dextramer was not capable of being sufficiently stained, thus being unavailable for detection of binding T cells. […] CD107a-positive CD8 T cells were selected by single sorting, and cultured on allofeeder cells to establish T cell clones.
The established T cell clones were cocultured with target cells (T2 cells) to which an HSP105-derived peptide had been exogenously bound for 20 hours, and the antigen stimulation-dependent IFN-γ productions were evaluated. The antigen specificities were evaluated by using cells to which a HIV-derived peptide had been bound as a negative control.

| Molecule | antigen-specific IFN-γ production capability |
| --- | --- |
| B1 | strong IFN-γ production capability |
| B2 | strong IFN-γ production capability |
| B3 | strong IFN-γ production capability |
| B4 | largely lower reactivity than the other clones |

test system: CasKi cell line; test: not given; conditions: not given

| Molecule | cytotoxic activity |
| --- | --- |
| B1 | significant cytotoxic activity |
| B2 | significant cytotoxic activity |
| B3 | significant cytotoxic activity |

test system: SW620 cell line; test: not given; conditions: not given

| Molecule | cytotoxic activity |
| --- | --- |
| B1 | No significant cytotoxic activity |
| B2 | No significant cytotoxic activity |
| B3 | No significant cytotoxic activity |

test system: T2 cells to which the peptide had been exogenously bound; test: not given; conditions: not given

| Molecule | damaging (cytotoxic) activity |
| --- | --- |
| B2 | exhibited damaging activity |
| B3 | exhibited damaging activity |

test system: SiHaA2 cell line; test: not given; conditions: not given

| Molecule | cytotoxic activity |
| --- | --- |
| B1 | No significant cytotoxic activity |
| B2 | No significant cytotoxic activity |
| B3 | No significant cytotoxic activity |
